These results are taken from the nanobody polyreactivity screen of Harvey et al. (2022).

This data set can be described thus: yeast display, Sf9 membrane polyspecificity reagent, FACS + sequencing; frameworks hold sequencing errors. The gist of the method:
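Galactose-induced (36–48 hours) yeast carrying a synthetic nanobody display library were exposed to 10% biotinylated, detergent-solubilized Sf9 membrane reagent at 4 °C for 1 hour. FACS followed streptavidin microbead enrichment, using low and high (top ~1%) gates for expression (anti-HA) and reagent binding (streptavidin). Colony PCR, MiSeq 2 × 250 sequencing and CDR-length filtering followed. Labels for polyreactivity reflect the gate of origin.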
For “QVQLVESGGGLVQAGGSLRLSCAASGSTFEAYAMGWYRQGPGKERELVAAINFTGGRTYYADSVKGRFTISRDNAKNTVYLQMNSLKPEDTAVYYCAARKWGVPYIDNDYWGQGTQVTVSS”, the “polyreactivity (PSR sort gate)” value was “low polyreactivity”.

For the sequence “QVQLVESGGGLVQAGGSLRLSCAASGSTFEDYPLGWYRQAPGKERELVAAISHIGGSTYYADSVKGRFTISRDNAKNTVYLQMNSLKPEDTAVYYCAKGGFSSKFDYWGQGTQVTVSS”, the “polyreactivity (PSR sort gate)” value is on record as “low polyreactivity”.

On to “QVQLVESGGGLVQAGGSLRLSCAASGSTFEIYAMGWYRQAPGKERELVAAISSGGSTNYADSVKGRFTISRDNAKNTVYLQMNSLKPEDTAVYYCVYAIQFDYWGQGTQVTVSS”, for which the “polyreactivity (PSR sort gate)” value was “low polyreactivity”.

Turning to “QVQLVESGGGLVQAGGSLRLSCAASGSTFEQYAMGWYRQAPGTERELVASISTGGGRTYYADSVKGRFTISRDNAKYTVYLQMNSLKPEETAVFYCNKRYRGYKTGYSRFDYWVQGTQVTVSS”, the “polyreactivity (PSR sort gate)” value is recorded as “low polyreactivity”.

“QVQLVESGGGLVQAGGSLRLSCAASGSTFERYVMGWYRQAPGTERELVAAISRSGGTTYYADSVKGRFTISRDNAKNTVYLHMNSLKPEDTAVYYCAARYSVRGSQRPIYYYWGQGTQVTVSS”: the “polyreactivity (PSR sort gate)” value was “high polyreactivity”.

In the case of “QVQLVESGGGLVQAGGSLRLSCAASGSTFESNAMGWSRPAPGKEREFVAAITSGGSTDYADSVKGRFKISRDNAKNTVYLQMNSLKPEDTAVYYCAKGTFDLHYRKRYNYWGQGTQVTVSS”, the “polyreactivity (PSR sort gate)” value is on record as “low polyreactivity”.

“QVQLVESGGGLVQAGGSLRLSCAASGSTFESNAMRWYRQAPGKERELVAAISRGGNTYYADSVKGLFTISRDNAKYTVYLQMHSLKPEDTAVYYCNVDRGNPVPPSEYWGQGTKVTVSS”: the “polyreactivity (PSR sort gate)” value is listed as “low polyreactivity”.

On to “QVQLVESGGGLVQAGGSLRLSCAASGSTFESYDMGWYRQAPGKERELVAAIDWSGGITYYADSVKGRFTISRDNAKNTVYLQMNSLKPEDTAVYYCNAGPYWWYYGEDYWGQGTQVTVSS”, for which the “polyreactivity (PSR sort gate)” value is on record as “low polyreactivity”.

On to “QVQLVESGGGLVQAGGSLRLSCAASGSTFESYDMGWYRQAPGNERELVAAIDWSGGITYYADSVKGRFTISRDNAKNTVYLQMNSLKPEDTAVYYCNADWFVRYPKRVYWAEYDYWGQGTQVTVSS”, for which the “polyreactivity (PSR sort gate)” value is “low polyreactivity”.

As for “QVQLVESGGGLVQAGGSLRLSCAASGSTFETNAMGWYRPAPGKERELVAAIRWSTGNTYYADSVKGRFTISRDNAKNTVYLQMNSLKPEDTEVYYCAAYKGKHYIEGYWGQGTQVTVSS”, the “polyreactivity (PSR sort gate)” value was “low polyreactivity”.

As for “QVQLVESGGGLVQAGGSLRLSCAASGSTFETYAMGWYRQAPGKERELVAVITSDGSTNYADSVKGRFTISRDNAKNTVYLQMNSLKPEDTAVYYCNADYGFYVPGYPIYWIYEYWGQGTQVTVSS”, the “polyreactivity (PSR sort gate)” value is on record as “low polyreactivity”.

As for “QVQLVESGGGLVQAGGSLRLSCAASGSTFEVNAMGWYRQAPGKERELVATITRSGGSTYYADSVKGRFTISRDNAKNTVYLQMNSLKPEDTAVYYCNAMWELKWGQGTQVTVSS”, the “polyreactivity (PSR sort gate)” value is listed as “low polyreactivity”.

In the case of “QVQLVESGGGLVQAGGSLRLSCAASGSTFEVYTMGWYRQAAGKERELVADITWSGGNTYYADSVKGRFTISRDNAKNTVYLQMNSLKPEDTAVYYCAADYYHKTVYWYDYWGQGTQVTVSS”, the “polyreactivity (PSR sort gate)” value is given as “low polyreactivity”.

As for “QVQLVESGGGLVQAGGSLRLSCAASGSTFEWYTMGWYRQAPGKERELVAAINGGGSTKYADSVKGRFTISRDNAKKTVYLQMNSLKPEDTAVYYCNLKYGMYWGQGTQVTVSS”, the “polyreactivity (PSR sort gate)” value is on record as “high polyreactivity”.

As to “QVQLVESGGGLVQAGGSLRLSCAASGSTFEYNAMGWYRQAPGKERELVASSTNYADSVKGRFTISRDNAKNTVYLQMNSLKPDDTEVYYCARDRYYTREWYWYRHDHWGQGTQVTVSS”, the “polyreactivity (PSR sort gate)” value is “low polyreactivity”.

Regarding “QVQLVESGGGLVQAGGSLRLSCAASGSTFEYYAMGSYRQAPGKERELVATISIDGRTNYADSVKGRFTISRDNAKNTVYLQMNSLKPEDTAVYYCAARPYWRQRYDYWGQGTQVTVSS”, the “polyreactivity (PSR sort gate)” value is given as “low polyreactivity”.

Take “QVQLVESGGGLVQAGGSLRLSCAASGSTFEYYAMGWYRQAPGKERELVAAITGSGDNTYYADSVKGRFTISRDNAKNTVYLQMNSLKPEDTAVYYCAATMRVKGQYGRMYYWGQGTQVTVSS”: the “polyreactivity (PSR sort gate)” value is given as “high polyreactivity”.

Take “QVQLVESGGGLVQAGGSLRLSCAASGSTFEYYAMGWYRQAPGKERELVAAITRSGSRTRYADSVKGRFTISRDNAKNTVYLQMNSLKPEDTAVYYCARLSSARYPFDSWGQGTQVTVSS”: the “polyreactivity (PSR sort gate)” value is “high polyreactivity”.

Regarding “QVQLVESGGGLVQAGGSLRLSCAASGSTFEYYAMVWYRQAAGKERELVDRINWSGGSTYYADSVKGRFTISRDNAKNTVYLQMNSLKPEDTAVYYCNRKLTRFTCFPLAYWGQGTQVTVSS”, the “polyreactivity (PSR sort gate)” value was “low polyreactivity”.

Take “QVQLVESGGGLVQAGGSLRLSCAASGSTFFANVMGWYRQAPGKEREFVAAINYRTGSTHYSDSVKGRFTISRDNAKNTVYLQMNSLKPEDTAVYYCAVYYQYTDVYQYSGYSVRYDYWGQGTQVTVSS”: the “polyreactivity (PSR sort gate)” value is recorded as “low polyreactivity”.

For the sequence “QVQLVESGGGLVQAGGSLRLSCAASGSTFFDYAMGWYRQAPGKERELVAVISDGGTTTYADSVKGRFTISRDNAKNTVYLQMNSLKPEDTAVYYCAAENQDGLLVILGGYGYWGQGTQVTVSS”, the “polyreactivity (PSR sort gate)” value was “low polyreactivity”.

With “QVQLVESGGGLVQAGGSLRLSCAASGSTFFEYAMGWYRQAPGKVREFVAGISWSGGITYYADSVKGRFTISRDNAKNTVYLQMNSLKPEDTAVYYCATAGGDWYGVDYWGQGTQVTVSS”, the “polyreactivity (PSR sort gate)” value is reported as “low polyreactivity”.

Take “QVQLVESGGGLVQAGGSLRLSCAASGSTFFEYTMGWYRQAPGKEREFVADIRGRDGSTSYADSVKGRFTISRDNAKNTVYLQMNSLKPEDTAVYYCNADVTRWTRSPWPYTYDYWGQGTQVTVSS”: the “polyreactivity (PSR sort gate)” value is reported as “low polyreactivity”.

For “QVQLVESGGGLVQAGGSLRLSCAASGSTFFFNAMGWYRQAPGKERELVAAITGRSGSTYYADSVKGRFTISRDNAKNTVYIQMNSLKPEDTAVYYCAADYVFVATPLRYDYWGQGTQVTVSS”, the “polyreactivity (PSR sort gate)” value was “low polyreactivity”.

For “QVQLVESGGGLVQAGGSLRLSCAASGSTFFGNAMGWYIQAPGKERELVAAIRFSGVGTYYADSVKGRFTISRDNAKNTVYLQLNSLKPEYTEVFYCAAESYYKYYWGQGTQVTVSS”, the “polyreactivity (PSR sort gate)” value is “low polyreactivity”.

In the case of “QVQLVESGGGLVQAGGSLRLSCAASGSTFFGNAMGWYRQAPGKERELVAAITTGSGRTYYADSVKGRFTISRDNAKNTVYLQMNSLKPEDTAVYYCAARFSERVYVVPFGYWGQGTQVTVSS”, the “polyreactivity (PSR sort gate)” value is recorded as “high polyreactivity”.

With “QVQLVESGGGLVQAGGSLRLSCAASGSTFFGNTMGWYRQAPGKERELVAAITYRGSTYYADSVKGRFTISRDNAKNTVYLQMNSLKPEDTAVYYCAADGRWYNSESEYDYWGQGTQVTVSS”, the “polyreactivity (PSR sort gate)” value is reported as “low polyreactivity”.

As for “QVQLVESGGGLVQAGGSLRLSCAASGSTFFHNAMGWYRQAPGKERELVAAINWNGGSTYYADSVKGRFTISRDNAKNTVYLQMNSLKPEDTAVYYCAADIYTYLGAYYIGYYWGQGTQVTVSS”, the “polyreactivity (PSR sort gate)” value is on record as “low polyreactivity”.

Take “QVQLVESGGGLVQAGGSLRLSCAASGSTFFHYVMGWYRQAPGKERELVAAIRWSGGRTRYADSVKGRFTISRDNAKNTVYLQMNSLKPEDTAVYYCAAYRLSKPFYKYDYWGQGTQVTVSS”: the “polyreactivity (PSR sort gate)” value is given as “high polyreactivity”.

As for “QVQLVESGGGLVQAGGSLRLSCAASGSTFFLYAMGWYRQAPGKERELVAAISTTGGSTNYADSVKGRFTISRDNAKNTVYLQMNSLKPEDTAVYYCAAGPSAQSIYDHWGQGTQVTLSS”, the “polyreactivity (PSR sort gate)” value is listed as “low polyreactivity”.

In the case of “QVQLVESGGGLVQAGGSLRLSCAASGSTFFLYAMGWYRQAPGKERELVAAITYTDGDTYYADSVKGRFTISRDNAKNTVYLQMNSLKPEDTAVYYCAAYRFPYFPSIAYYYTYYSWGQGTQVTVSS”, the “polyreactivity (PSR sort gate)” value is reported as “low polyreactivity”.

“QVQLVESGGGLVQAGGSLRLSCAASGSTFFRNAMGWYRQAPGKERELVASITSGGNTKYADSVKGRFTISRDNAKNTVYLQMNSLKPEDTAVYYCAALFYHFARYSRLYNYWGQGTQVTVSS”: the “polyreactivity (PSR sort gate)” value is “low polyreactivity”.

With “QVQLVESGGGLVQAGGSLRLSCAASGSTFFRYAMGWNRQAPGKERELVATITGGGRTNYADSVKGRFTISRDNAKNTVYLQMNTLKPEDTAVYYCAAYGYVWALRLRYVTYYYWGQGTQVTVSS”, the “polyreactivity (PSR sort gate)” value is given as “high polyreactivity”.

In the case of “QVQLVESGGGLVQAGGSLRLSCAASGSTFFSYAMGWYRQAPGKDRELVAAISNSGGTTYYADSVKGRFTISRDNAKNTVYLQMNSLKPEDTAVYYSATRARYVGGYKYNYWGQGTQVTVSS”, the “polyreactivity (PSR sort gate)” value is reported as “high polyreactivity”.

For “QVQLVESGGGLVQAGGSLRLSCAASGSTFFSYAMGWYRQAPGKERELVAAISNTGGTHYADSVKGRFTISRDNAKNTVYLQMNSLKPEDTAVFYCAADGWYYIGPFSVYSSFTSDYWGQGTQLTVSS”, the “polyreactivity (PSR sort gate)” value is on record as “low polyreactivity”.

For the sequence “QVQLVESGGGLVQAGGSLRLSCAASGSTFFTYAMGWYRQAPGKERELVAAITRGGSSYYADSVKGRFTISRDNAKNTVYLLMNSLKPEDTAVYDCAARVSYRYGYWGQGTQVTVSS”, the “polyreactivity (PSR sort gate)” value is on record as “high polyreactivity”.

Take “QVQLVESGGGLVQAGGSLRLSCAASGSTFFVNTMGWYRQAPGKERELVAAIRRRGGSTYYADSVKGRFTISRDNAKNTVYLQMNSLIPEDTAVYYCAADSYSRYYYWGQGTQVTVSS”: the “polyreactivity (PSR sort gate)” value is “high polyreactivity”.

As to “QVQLVESGGGLVQAGGSLRLSCAASGSTFFVYAMGWYRQAPGKERELVATISSAASTYYADSVKGRFTISRDNAKNTVYLQMNSLKPEDTAVYYCAAGYFIRTRSRYRYDYWGQGTQVTVSS”, the “polyreactivity (PSR sort gate)” value is given as “high polyreactivity”.

For “QVQLVESGGGLVQAGGSLRLSCAASGSTFFYNAMGWYRQAPGKERELVAAITYRGGRTYYADSVKGRFTISRDIAKNTVYLQMKSLNPEDTSVYYCHAYPLYRVPDRLVVSDGNYWGQGTQVTVSS”, the “polyreactivity (PSR sort gate)” value is “low polyreactivity”.

In the case of “QVQLVESGGGLVQAGGSLRLSCAASGSTFFYYAMGLYRQAPGKERELVADITSSGGRTYYADSVKGRFTISRDNAKNTVYLQMNSLKPEDTAVYYCAARDYRQSRYEYWGQGTQVTVSS”, the “polyreactivity (PSR sort gate)” value is recorded as “high polyreactivity”.

Take “QVQLVESGGGLVQAGGSLRLSCAASGSTFFYYAMGWYRQAPGKERELVAAITSSGGRTYYADSVKGRFTISRDNAKITVYLQMNSLKPEDTAVYYCAARDYRQSRYEYWGQGTQVTVSS”: the “polyreactivity (PSR sort gate)” value was “high polyreactivity”.
